Measured values from publication PMC8116589, “Distinguishing Signal From Noise in Immunopeptidome Studies of Limiting-Abundance Biological Samples: Peptides Presented by I-A^b in C57BL/6 Mouse Thymus” (Frontiers in Immunology, 2021).
Where no end group is shown, it is not given here.

Each binder was assayed against soluble I-A^b-3R, mouse MHC-II protein (recombinant I-A^b) (mouse) (assay: fluorescence polarisation; competition: 100 nM I-A^b-3R (3R cut off by thrombin, 1 U/ug), 25 nM Alexa488-labeled CLIP probe peptide, test peptide from 100 uM in 5-fold dilutions, 0.5 uM HLA-DM, read after 72 h at 37 C; 100 mM sodium citrate, 50 mM NaCl, 0.1% octyl glucoside, 5 mM EDTA, 1 mM DTT; three independent experiments, mean and SD).
Binder AQRAGYKAAIVHNVDS [… (E3 ubiquitin-protein ligase RNF13 peptide)] has an IC50 of 2.42 µM. In the case of NDWTVDHPQTLFAWEG [… (B-cell receptor CD22 peptide)], the IC50 is reported as 0.445 µM. Binder LNLPTGIPIVYEL (not fully specified) [… (Phosphoglycerate mutase 2 peptide)] has an IC50 of 54.4 µM. With QVLSWSSPVGSRTLA [… (Protein Siglecg peptide)] the IC50 was 0.152 µM. In the case of AGTGVDNVDLEAATR (not fully specified) [… (D-3-phosphoglycerate dehydrogenase peptide)], the IC50 is reported as 57.5 µM. Work on IRRYGVSQPDAVAAWK (not fully specified) [… (Alpha-N-acetylglucosaminidase peptide)] yielded an IC50 of 0.249 µM. YSMGMHTYQVG [… (Cathepsin S peptide)] showed an IC50 of 74.1 µM.
